Data taken from publication PMC4974663, “The ATPase hCINAP regulates 18S rRNA processing and is essential for embryogenesis and tumour growth” (Nature Communications, 2016).

Target: T1, GST-RPS14 (UniProt P62263 1-151)
T1 construct: ribosomal protein RPS14; also called recombinant GST-RPS14
Assay: pull-down; GST-RPS14 and His-hCINAP incubated in 1 ml NP-40 lysis buffer (50 mM Tris pH 8.0, 150 mM NaCl, 1% NP-40) for 2 h at 4 °C, then ATP or AMP-PNP at 1 mM with 5 mM MgCl2 for 1 h; GST beads 1 h; western blot
Conditions: both partners purified

binding result: binds
B1: His-hCINAP (enzyme)
chain: MLLPNILLTGTPGVGKTTLGKELASKSGLKYINVGDLAREEQLYDGYDEEYDCPILDEDRVVDELDNQMREGGVIVDYHGCDFFPERWFHIVFVLRTDTNVLYERLETRGYNEKKLTDNIQCEIFQVLYEEATASYKEEIVHQLPSNKPEELENNVDQILKWIEQWIKDHNS
notes: also called His6-hCINAP
